Tests used:
Rsp3690 = molecular target: T1, Rsp3690 (Cereibacter sphaeroides, UniProt Q3IVY4); test: 4-nitrophenol release at […] nm; conditions: pH 8.3, 30 °C, 400 μM MnCl2, Mn enzyme
T1 sequence (Q3IVY4 1-354): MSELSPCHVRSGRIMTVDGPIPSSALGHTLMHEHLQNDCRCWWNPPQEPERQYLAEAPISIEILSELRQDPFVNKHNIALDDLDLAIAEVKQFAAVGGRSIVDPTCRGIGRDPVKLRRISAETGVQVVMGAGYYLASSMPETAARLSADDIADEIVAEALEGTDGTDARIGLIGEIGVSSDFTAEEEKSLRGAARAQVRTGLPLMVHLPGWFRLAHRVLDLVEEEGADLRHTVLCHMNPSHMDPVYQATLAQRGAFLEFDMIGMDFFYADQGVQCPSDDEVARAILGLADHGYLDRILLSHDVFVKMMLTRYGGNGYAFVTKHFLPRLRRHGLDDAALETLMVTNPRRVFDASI

purified protein [1] = substrate: CCCCCCC(=O)Oc1ccc2c(C)cc(=O)oc2c1; test: purified protein; format: biochemical, Cereibacter sphaeroides; conditions: pH 8.3, 30 °C, 400 μM MnCl2, Mn enzyme
purified protein [2] = substrate: CCCC(=O)Oc1ccc2c(C)cc(=O)oc2c1; test: purified protein; format: biochemical, Cereibacter sphaeroides; conditions: pH 8.3, 30 °C, 400 μM MnCl2, Mn enzyme
purified protein [3] = substrate: CC(=O)Oc1cccnc1; test: purified protein; format: biochemical, Cereibacter sphaeroides; conditions: pH 8.3, 30 °C, 400 μM MnCl2, Mn enzyme
purified protein [4] = substrate: CC(=O)Oc1ccc(OC(C)=O)cc1; test: purified protein; format: biochemical, Cereibacter sphaeroides; conditions: pH 8.3, 30 °C, 400 μM MnCl2, Mn enzyme
purified protein [5] = substrate: CC(=O)Oc1ccc2c(C)cc(=O)oc2c1; test: purified protein; format: biochemical, Cereibacter sphaeroides; conditions: pH 8.3, 30 °C, 400 μM MnCl2, Mn enzyme
purified protein [6] = substrate: CCCC(=O)Oc1cccc2ccccc12; test: purified protein; format: biochemical, Cereibacter sphaeroides; conditions: pH 8.3, 30 °C, 400 μM MnCl2, Mn enzyme
purified protein [7] = substrate: CC(=O)Oc1cccc2ccccc12; test: purified protein; format: biochemical, Cereibacter sphaeroides; conditions: pH 8.3, 30 °C, 400 μM MnCl2, Mn enzyme
purified protein [8] = substrate: CC(=O)OCc1ccccc1; test: purified protein; format: biochemical, Cereibacter sphaeroides; conditions: pH 8.3, 30 °C, 400 μM MnCl2, Mn enzyme
purified protein [9] = substrate: CC(=O)Nc1ccc(Cl)cc1; test: purified protein; format: biochemical, Cereibacter sphaeroides; conditions: pH 8.3, 30 °C, 400 μM MnCl2, Mn enzyme
purified protein [10] = substrate: CC(=O)Oc1ccccc1; test: purified protein; format: biochemical, Cereibacter sphaeroides; conditions: pH 8.3, 30 °C, 400 μM MnCl2, Mn enzyme
purified protein [11] = substrate: CCC(=O)Oc1ccc2ccccc2c1; test: purified protein; format: biochemical, Cereibacter sphaeroides; conditions: pH 8.3, 30 °C, 400 μM MnCl2, Mn enzyme
purified protein [12] = substrate: CC(=O)Oc1c[nH]c2ccccc12; test: purified protein; format: biochemical, Cereibacter sphaeroides; conditions: 50 mM Hepes pH 8.3, 1% ethanol, 30 °C, 400 μM MnCl2, Mn enzyme
purified protein [13] = substrate: CC(=O)Oc1ccc2ccccc2c1; test: purified protein; format: biochemical, Cereibacter sphaeroides; conditions: pH 8.3, 30 °C, 400 μM MnCl2, Mn enzyme
purified protein [14] = substrate: CC(=O)Nc1ccc([N+](=O)[O-])cc1; test: purified protein; conditions: pH 8.3, 30 °C, 400 μM MnCl2, Mn enzyme
purified protein [15] = substrate: CCCCCCCC(=O)Oc1ccc([N+](=O)[O-])cc1; test: purified protein; conditions: pH 8.3, 30 °C, 400 μM MnCl2, Mn enzyme
purified protein [16] = substrate: CCCC(=O)Oc1ccc([N+](=O)[O-])cc1; test: purified protein; conditions: pH 8.3, 30 °C, 400 μM MnCl2, Mn enzyme
purified protein [17] = substrate: CCCCCC(=O)Oc1ccc([N+](=O)[O-])cc1; test: purified protein; conditions: pH 8.3, 30 °C, 400 μM MnCl2, Mn enzyme
purified protein [18] = substrate: CC(=O)Oc1ccc([N+](=O)[O-])cc1; test: purified protein; conditions: pH 8.3, 30 °C, 400 μM MnCl2, Mn enzyme

`CCOP(=O)(OCC)Oc1ccc([N+](=O)[O-])cc1` [compound 27, paraoxon] showed a Km (Rsp3690) of 110 ± 10 µM.

Work on `COP(=O)(OC)Oc1ccc([N+](=O)[O-])cc1` [compound 26, methyl paraoxon] yielded a Km (Rsp3690) of 420 ± 40 µM.

B1: Rsp3690 (Cereibacter sphaeroides 2.4.1) (protein)
chain: MSELSPCHVRSGRIMTVDGPIPSSALGHTLMHEHLQNDCRCWWNPPQEPERQYLAEAPISIEILSELRQDPFVNKHNIALDDLDLAIAEVKQFAAVGGRSIVDPTCRGIGRDPVKLRRISAETGVQVVMGAGYYLASSMPETAARLSADDIADEIVAEALEGTDGTDARIGLIGEIGVSSDFTAEEEKSLRGAARAQVRTGLPLMVHLPGWFRLAHRVLDLVEEEGADLRHTVLCHMNPSHMDPVYQATLAQRGAFLEFDMIGMDFFYADQGVQCPSDDEVARAILGLADHGYLDRILLSHDVFVKMMLTRYGGNGYAFVTKHFLPRLRRHGLDDAALETLMVTNPRRVFDASI
B1 gave a Km (purified protein [1]) of 24 ± 3 µM, a kcat (purified protein [1]) of 0.063 ± 0.001 s⁻¹ and a kcat/Km (purified protein [1]) of 2600 ± 300 M⁻¹ s⁻¹. It also gave a Km (purified protein [2]) of 160 ± 20 µM, a kcat (purified protein [2]) of 4.9 ± 0.2 s⁻¹ and a kcat/Km (purified protein [2]) of 31000 ± 4000 M⁻¹ s⁻¹. It also gave a Km (purified protein [3]) of 1800 ± 200 µM, a kcat (purified protein [3]) of 4.3 ± 0.3 s⁻¹ and a kcat/Km (purified protein [3]) of 2400 ± 300 M⁻¹ s⁻¹. The Km (purified protein [4]) was 900 ± 100 µM, the kcat (purified protein [4]) was 108 ± 4 s⁻¹ and the kcat/Km (purified protein [4]) was 130000 ± 10000 M⁻¹ s⁻¹. It also gave a Km (purified protein [5]) of 240 ± 20 µM, a kcat (purified protein [5]) of 0.65 ± 0.02 s⁻¹ and a kcat/Km (purified protein [5]) of 2700 ± 200 M⁻¹ s⁻¹. It also gave a Km (purified protein [6]) of 180 ± 20 µM, a kcat (purified protein [6]) of 9 ± 1 s⁻¹ and a kcat/Km (purified protein [6]) of 50000 ± 6000 M⁻¹ s⁻¹. The Km (purified protein [7]) was 640 ± 70 µM, the kcat (purified protein [7]) was 4.8 ± 0.1 s⁻¹ and the kcat/Km (purified protein [7]) was 7500 ± 100 M⁻¹ s⁻¹. It also gave a Km (purified protein [8]) of 1600 ± 100 µM, a kcat (purified protein [8]) of 2.5 ± 0.1 s⁻¹ and a kcat/Km (purified protein [8]) of 1600 ± 100 M⁻¹ s⁻¹. It also gave a Km (purified protein [9]) of 1600 ± 100 µM, a kcat (purified protein [9]) of 0.1 ± 0.01 s⁻¹ and a kcat/Km (purified protein [9]) of 63 ± 7 M⁻¹ s⁻¹. For the same molecule, the Km (purified protein [10]) was 2800 ± 200 µM, the kcat (purified protein [10]) was 30 ± 1 s⁻¹ and the kcat/Km (purified protein [10]) was 11000 ± 1000 M⁻¹ s⁻¹. For the same molecule, the Km (purified protein [11]) was 560 ± 30 µM, the kcat (purified protein [11]) was 83 ± 2 s⁻¹ and the kcat/Km (purified protein [11]) was 150000 ± 10000 M⁻¹ s⁻¹. The Km (purified protein [12]) was 1900 ± 200 µM, the kcat (purified protein [12]) was 2.3 ± 0.1 s⁻¹ and the kcat/Km (purified protein [12]) was 1200 ± 100 M⁻¹ s⁻¹. For the same molecule, the Km (purified protein [13]) was 400 ± 40 µM, the kcat (purified protein [13]) was 40 ± 2 s⁻¹ and the kcat/Km (purified protein [13]) was 100000 ± 10000 M⁻¹ s⁻¹. The Km (purified protein [14]) was 650 ± 60 µM, the kcat (purified protein [14]) was 0.36 ± 0.02 s⁻¹ and the kcat/Km (purified protein [14]) was 550 ± 60 M⁻¹ s⁻¹. It also gave a Km (purified protein [15]) of 33 ± 4 µM, a kcat (purified protein [15]) of 0.5 ± 0.01 s⁻¹ and a kcat/Km (purified protein [15]) of 15000 ± 2000 M⁻¹ s⁻¹. It also gave a Km (purified protein [16]) of 56 ± 3 µM, a kcat (purified protein [16]) of 50 ± 1 s⁻¹ and a kcat/Km (purified protein [16]) of 880000 ± 40000 M⁻¹ s⁻¹. The Km (purified protein [17]) was 48 ± 5 µM, the kcat (purified protein [17]) was 6.5 ± 0.2 s⁻¹ and the kcat/Km (purified protein [17]) was 130000 ± 10000 M⁻¹ s⁻¹. The Km (purified protein [18]) was 520 ± 40 µM, the kcat (purified protein [18]) was 120 ± 3 s⁻¹ and the kcat/Km (purified protein [18]) was 230000 ± 20000 M⁻¹ s⁻¹.

— publication PMC4045322 (Biochemistry, 2014)
